We go through two sequences from publication PMC5730154.

This series addresses T1, PamR (YdcH) (Bacillus subtilis 168) (UniProt P96625).
T1 sequence: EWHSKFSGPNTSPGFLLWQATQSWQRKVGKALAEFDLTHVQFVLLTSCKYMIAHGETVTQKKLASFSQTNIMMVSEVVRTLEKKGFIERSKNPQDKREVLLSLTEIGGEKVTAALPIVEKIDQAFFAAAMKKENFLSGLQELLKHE
The series can be described thus: EMSA. Particulars: 20 mM NaPO4 pH 7, 50 mM NaCl, 5 mM MgCl2, 10% glycerol, 0.1 ug/ul salmon sperm DNA, 10 min at room temperature; 4% native acrylamide gel.

For “AATGTTCCTTCCGTTCCATTTTGAAATTGTCCTTTCAAAGAATCTGATGCAATACCCGTCTCCCATTGATCCATTGTTTCTGTTTCCTGATAACAGTTCCAGGTTTTCCCACATCCACATCAGCTATCGCTGTGTATTCATAATTCCACATCCCATAAGCTCCCAGAATGATAAGTTCACTTATTAATTATAATAAGCGCACTTATTAATAGTCAACCGCAAAAAAAAGAAGCCGGATGTCCAGCTTCTTTTTCTGGTTTTTTAGGACAGCTGTCCGAGAATATAGGTCAGGT (double strand) [PydcF wt 293 bp]”, the binding result was “binds”. On to “ACCTGACCTATATTCTCGGACAGCTGTCCTAAAAAACCAGAAAAAGAAGCTGGACATCCGGCTTCTTTTTTTTGCGGTTGACTATATTATTCTGCGCTTATTATAATTAATAAGTGAACTTATCATTCTGGGAGCTTATGGGATGTGGAATTATGAATACACAGCGATAGCTGATGTGGATGTGGGAAAACCTGGAACTGTTATCAGGAAACAGAAACAATGGATCAATGGGAGACGGGTATTGCATCAGATTCTTTGAAAGGACAATTTCAAAATGGAACGGAAGGAACATT (double strand) [PydcF IR1* mutant]”, for which the binding result is “binds more weakly”.
